Laboratory results published in publication PMC9468336, “The choanoflagellate pore-forming lectin SaroL-1 punches holes in cancer cells by targeting the tumor-related glycosphingolipid Gb3” (Communications Biology, 2022).
Values joined by “and” are separate entries in the source; they are usually repeats but may differ in a detail not shown here. Equal entries are not always repeated.

Assays:
[1] = Dextran influx into GUVs (pore formation); assay type: biochemical; conditions: for GUVs filled with dextran-AF488, average %: 3 kDa dextran; for GUVs filled with 70 kDa FITC-dextran, average %: 70 kDa dextran
Excerpt: (§1) GUVs were composed of 1,2-dioleoyl-sn-glycero-3-phosphocholine (DOPC), cholesterol (both AvantiPolar Lipids, United States), Atto 647 N 1,2-dioleoyl-sn-glycero-3-phosphoethanolamine (DOPE; Sigma-Aldrich), and one of the following glycolipids at a molar ratio of 64.7:30:0.3:5. The glycolipids are globotriaosylceramide (Gb3, Matreya), FSL-Gb3 (Function-Spacer-Lipid with globotriaosyl saccharide), and corresponding FSL-isoGb3 (Function-Spacer-Lipid with iso-globotriaosyl saccharide) synthetized as previously described[84],[85], FSL-A(tri) (Function-Spacer-Lipid with blood group A trisaccharide; Sigma-Aldrich), FSL-B(tri) (Function-Spacer-Lipid with blood group B trisaccharide; Sigma-Aldrich) or lactosylceramide (LC, Sigma-Aldrich).
GUVs were prepared by the electroformation method as earlier described. Briefly, lipids dissolved in chloroform of a total concentration of 0.5 mg/mL were spread on indium tin oxid-covered (ITO) glass slides and dried in a vacuum for at least 1 h or overnight. Two ITO slides were assembled to create a chamber filled with sucrose solution adapted to the osmolarity of the imaging buffer of choice, either HBSS (live-cell imaging) or PBS (GUVs only imaging). Then, an alternating electrical field with a field strength of 1 V/mm was implemented for 2.5 h at RT. Later we observed the GUVs in chambers manually built as described.
Dextran Alexa Fluor 488 (Dextran-AF488) with a MW of 3 kDa (Thermo Fischer) or 70 kDa FITC-dextran (Sigma-Aldrich) was added to the observation chamber (0.02 mg/mL) in PBS buffer together with 200 nM SaroL-1. Then wt Gb3-containing GUVs (40 µL) were added for imaging and monitoring of pore-formation. Dextran-AF488 was present in the GUVs’ surrounding solution. For PNPG treatment, 200 nM of SaroL-1 was pre-incubated with 10 mM PNPG dissolved in DMSO for 15 min at RT in the observation chamber. Directly after, dextran-AF488 (0.02 mg/mL) and 40 µL wt Gb3-containing GUVs were added to the observation chamber and monitored using confocal microscopy.

H1299 cells [2] = assay: Cell proliferation (MTT) assay; assay type: cell-based, human
Method: (§2) The human lung epithelial cell line H1299 (American Type Culture Collection, CRL-5803) was cultured in a complete medium, consisting of Roswell Park Memorial Institute (RPMI) medium supplemented with 10% fetal calf serum (FCS) and 2 mM L-glutamine at 37 °C and 5% CO2. Cells were stimulated with different concentrations of SaroL-1 in a complete medium for indicated time points.
To investigate the cytotoxic effect of SaroL-1 on human cells, H1299 cells were treated with increasing concentrations of SaroL-1 for 24 h in a standard MTT assay. For the depletion of Gb3 from the plasma membrane, H1299 cells were treated with 2 µM PPMP for 72 h before the experiment. 3.5 × 10^4 cells per well were transferred to a 96-well plate with a U-bottom. The cells were centrifuged at 1600 × g for 3 min at RT. The cell pellet was re-suspended in 100 μL of variously concentrated protein solutions (3, 14, 27, 68, 135, 270, 680, 1360 nM) and transferred to a 96-well flat-bottomed plate. The cells were incubated for 24 h at 37 °C. Subsequently, 10 μL of MTT labelling solution (MTT Cell Proliferation Kit, Roche) was added to each well, and the cells were incubated for 4 h at 37 °C. Then, 100 μL of the solubilisation reagent was added to each well, and the plate was incubated at 37 °C overnight. The next day, the absorbance of the samples was measured at 550 nm using a BioTek microplate reader. To assess SaroL-1 cytotoxicity in the presence of the soluble sugar PNPG, 3.5 × 10^4 cells per well were transferred to a 96-well plate with a U-bottom. Variously concentrated protein solutions (3, 14, 27, 68, 135, 270, 680, 1360 nM) were preincubated with 10 mM PNPG dissolved in complete medium, for 15 min at RT. The cells were centrifuged at 1600 × g for 3 min at RT. Next, the cell pellet was re-suspended in 100 μL protein solution and transferred to a 96-well flat-bottomed plate. The cells were incubated for 24 h at 37 °C, and the MTT assay was performed as described above. The data was further analyzed using GraphPad Prism software.

SaroL-1 = biological target: T1, SaroL-1 (Salpingoeca rosetta, UniProt F2UID9); assay: Inhibition of SaroL-1 (217 nM) induced hemolysis of rabbit erythrocytes after 1 h pre-incubation of lectin with sugar at RT, then 1-2 h at 37 °C, absorbance of supernatant at 540 nm.; assay type: cell-based; conditions: n = 2
T1 construct: gene PTSG_08235; monomeric in solution
Method: Hemolytic assay (HA) and inhibition of hemolytic activity (IHA)
Both HA and IHA assays were performed in U-shaped 96-well microtiter plates. In both cases, a control negative experiment was performed with Buffer A added to erythrocyte solution (2% final concentration), and the resulting value was subtracted from all data.
IHA was performed in U-shaped 96-well microtiter plates. […] 4% rabbit erythrocytes were added to the mixture in a 1:1 ratio and incubated for 1–2 h at 37 °C. The samples were centrifuged, 2600 × g for 15 min at RT, and the absorbance of the supernatant was measured at 540 nm by a Tecan reader.

[3] = Confocal imaging of SaroL-1 binding to FSL-B GUVs; conditions: 200 nM SaroL-1, FSL-B GUVs
Excerpt: as §1
(§3) GUVs were prepared by the electroformation method as earlier described. Briefly, lipids dissolved in chloroform of a total concentration of 0.5 mg/mL were spread on indium tin oxid-covered (ITO) glass slides and dried in a vacuum for at least 1 h or overnight. […]
(§4) Samples of GUVs and SaroL-1 were imaged using a confocal fluorescence microscope (Nikon Eclipse Ti-E inverted microscope equipped with Nikon A1R confocal laser scanning system, 60x oil immersion objective, NA = 1.49 and four laser lines: 405 nm, 488 nm, 561 nm, and 640 nm). […]

H1299 cells [4] = assay: Cell detachment assay; assay type: cell-based, human
Method: as §2
To determine the role of SaroL-1 in cell detachment, 3 × 10^5 cells per well were counted and allowed to adhere overnight in a 6-well plate. The next day, cells were incubated for 2, 4, or 8 h with two different concentrations of SaroL-1 (270 nM and 1.36 µM) diluted in a complete medium compared to a negative control. As a positive control, cells were incubated with trypsin-EDTA for 10 min at 37 °C, to induce 100% cell detachment. The number of cells in suspension at the indicated time points was quantified by analyzing the supernatant with the CytoSmart Corning cell counter. Cells were resuspended with Trypan Blue solution (Sigma-Aldrich) in a ratio 1:1 for the quantification of cellular death upon detachment.

[5] = Confocal imaging of SaroL-1 binding to FSL-A GUVs; conditions: 200 nM SaroL-1, FSL-A GUVs
Excerpt: as §1, §3, §4

[6] = 200 nM SaroL-1, 30 min, listed as SaroL1
[7] = 200 nM SaroL-1, 120 min, listed as SaroL1

Molecule: O=[N+]([O-])c1ccc(O[C@H]2O[C@H](CO)[C@H](O)[C@H](O)[C@H]2O)cc1 [PNPG, p-nitrophenyl-α-D-galactopyranoside]
- GUVs filled with dextran-AF488, average % ([1]; 200 nM SaroL-1 pre-treated with 10 mM PNPG, 0 min): 0%
- GUVs filled with dextran-AF488, average % ([1]; 200 nM SaroL-1 pre-treated with 10 mM PNPG, 60 min): 0.4205%
- GUVs filled with dextran-AF488, average % ([1]; 200 nM SaroL-1 pre-treated with 10 mM PNPG, 120 min): 4% and 4.251%
- reduction of SaroL-1-induced cell death (H1299 cells [2]; SaroL-1 (3-1358 nM) pre-incubated with 10 mM PNPG, 24 h): > 90%
- IC50 (SaroL-1): 2900 µM

B1: SaroL-1: Recombinant pore-forming lectin of Salpingoeca rosetta (UniProt F2UID9, 329 amino acids) with β-trefoil and aerolysin-like domains (protein)
chain: MSSTFEPATDSPLPVPGVQYFLQHVQSGKYVHPHGGSDMPGNDTALVLHHGFDEKRDALRWVFVNDAENKHQLKHYSSGKFVHPKGGKVGKEATLVVHSSPGRPETMIEMVQEDGRTYLRHTDSDYYVHPHGGSPNPGDNTRLVYYSGYRPSLAFLAIPAETLFVDRIEIHQAQALESINTITSLSDEHRNDTDQPVQTSISVALEESLQDSAQLSFERCFGLKVGSEFEVGLPLVGKTKVSVQFSGSWKSSTIKGEVRTSAVKVQINEHVTIPPGKCVQIRIDTRRCTKTAPATMYLRTASGIEVQRETTVTSTYHYDQEVHVVPVTN
modifications: left off: His6, N-terminal, state not stated
notes: Recombinant pore-forming lectin of Salpingoeca rosetta (UniProt F2UID9, 329 amino acids) with β-trefoil and aerolysin-like domains
- binding to GUVs [3]: No binding
- GUVs filled with dextran-AF488, average % ([1]; 200 nM SaroL-1, 0 min): 11.106%
- GUVs filled with dextran-AF488, average % ([1]; 200 nM SaroL-1, 30 min): 45%
- GUVs filled with dextran-AF488, average % [1, 6]: 45.1678%
- GUVs filled with dextran-AF488, average % ([1]; 200 nM SaroL-1, 60 min): 57.8615%
- GUVs filled with dextran-AF488, average % ([1]; 200 nM SaroL-1, 120 min): 69%
- GUVs filled with dextran-AF488, average % [1, 7]: 69.3211%
- GUVs filled with 70 kDa FITC-dextran, average % ([1]; 200 nM SaroL-1, 0 min): 4.422%
- GUVs filled with 70 kDa FITC-dextran, average % ([1]; 200 nM SaroL-1, 30 min): 17%
- GUVs filled with 70 kDa FITC-dextran, average % [1, 6]: 16.9551%
- GUVs filled with 70 kDa FITC-dextran, average % ([1]; 200 nM SaroL-1, 60 min): 29%
- GUVs filled with 70 kDa FITC-dextran, average % ([1]; 200 nM SaroL-1, 60 min, listed as SaroL1): 28.4248%
- GUVs filled with 70 kDa FITC-dextran, average % ([1]; 200 nM SaroL-1, 120 min): 29%
- GUVs filled with 70 kDa FITC-dextran, average % [1, 7]: 29.7507%
- reduction of cell viability (H1299 cells [2]; 24 h, 1.36 µM SaroL-1): ~ 87%
- IC50 (H1299 cells [2]; 24 h, FCS-containing medium, read-out: concentration at which the percentage of viable cells decreased by half): 0.271 µM
- cytotoxicity on Gb3-depleted cells (in words) (H1299 cells [2]; H1299 pre-treated with PPMP for 72 h, 24 h with SaroL-1): remarkably reduced
- time point at which cell detachment is promoted (H1299 cells [4]; 271 nM SaroL-1): 8 h
- cell rounding and detachment (in words) (H1299 cells [4]; compared to PBS-treated cells): dose-dependent rounding and detachment of cells
- time point at which detachment of cells is visible (H1299 cells [4]; highest concentration, 1.36 µM SaroL-1): 2 h
- binding to GUVs [5]: No binding
